# US20090197812
# T1: Human I-κBα
# T1 chain: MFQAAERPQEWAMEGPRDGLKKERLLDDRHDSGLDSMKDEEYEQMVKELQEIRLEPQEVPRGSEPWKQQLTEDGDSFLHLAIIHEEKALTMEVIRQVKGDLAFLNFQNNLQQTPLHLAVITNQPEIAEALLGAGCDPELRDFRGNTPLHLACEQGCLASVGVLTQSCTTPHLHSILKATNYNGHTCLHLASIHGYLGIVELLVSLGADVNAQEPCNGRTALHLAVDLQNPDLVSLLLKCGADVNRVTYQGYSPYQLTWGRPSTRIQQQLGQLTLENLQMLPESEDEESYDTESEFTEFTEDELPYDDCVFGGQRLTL
# Tests used:
# Human I-κBα = biological target: T1, Human I-κBα
# [1] = biological target: mutant I-κBα, the phosphorylation sites of which were modified
protein,measurement,setting,value
"transglutaminase (guinea pig liver, Sigma) (protein) AEDLILERCDLQLEVNGRDHRTADLCRERLVLRRGQPFWLTLHFEGRGYEAGVDTLTFNAVTGPDPSEEAGTMARFSLSSAVEGGTWSASAVDQQDSTVSLLLSTPADAPIGLYRLSLEASTGYQGSSFVLGHFILLYNPRCPADAVYMDSDQERQEYVLTQQGFIYQGSAKFINGIPWNFGQFEDGILDICLMLLDTNPKFLKNAGQDCSRRSRPVYVGRVVSAMVNCNDDQGVLQGRWDNNYSDGVSPMSWIGSVDILRRWKDYGCQRVKYGQCWVFAAVACTVLRCLGIPTRVVTNFNSAHDQNSNLLIEYFRNESGEIEGNKSEMIWNFHCWVESWMTRPDLEPGYEGWQALDPTPQEKSEGTYCCGPVPVRAIKEGHLNVKYDAPFVFAEVNADVVNWIRQKDGSLRKSINHLVVGLKISTKSVGRDEREDITHTYKYPEGSEEEREAFVRANHLNKLATKEEAQEETGVAMRIRVGQNMTMGSDFDIFAYITNGTAESHECQLLLCARIVSYNGVLGPVCSTNDLLNLTLDPFSENSIPLHILYEKYGDYLTESNLIKVRGLLIEPAANSYVLAERDIYLENPEIKIRVLGEPKQNRKLIAEVSLKNPLPVPLLGCIFTVEGAGLTKDQKSVEVPDPVEAGEQAKVRVDLLPTEVGLHKLVVNFECDKLKAVKGYRNVIIGPA",polymerization of I-κβα on 4-12% NuPAGE,Human I-κBα,"both the intact I-κBα and the mutant I-κBα, the phosphorylation sites of which were modified, were polymerized to high-molecular weight polymers, by transglutaminase"
same,polymerization of I-κβα on 4-12% NuPAGE,[1],"both the intact I-κBα and the mutant I-κBα, the phosphorylation sites of which were modified, were polymerized to high-molecular weight polymers, by transglutaminase"
